{"source": "paper PMC6195255", "about": "“EBP1 nuclear accumulation negatively feeds back on FERONIA-mediated RALF1 signaling”", "binders": {"B1": {"name": "CML38 promoter CCACGTC probe (dsDNA)", "DNA 1": "AACACTAATCTACCACGTCTATTACACACA", "DNA 2": "TGTGTGTAATAGACGTGGTAGATTAGTGTT"}}, "molecular_target": "T1, EBP1-GST (UniProt Q96327-3 1-401)", "T1 sequence": "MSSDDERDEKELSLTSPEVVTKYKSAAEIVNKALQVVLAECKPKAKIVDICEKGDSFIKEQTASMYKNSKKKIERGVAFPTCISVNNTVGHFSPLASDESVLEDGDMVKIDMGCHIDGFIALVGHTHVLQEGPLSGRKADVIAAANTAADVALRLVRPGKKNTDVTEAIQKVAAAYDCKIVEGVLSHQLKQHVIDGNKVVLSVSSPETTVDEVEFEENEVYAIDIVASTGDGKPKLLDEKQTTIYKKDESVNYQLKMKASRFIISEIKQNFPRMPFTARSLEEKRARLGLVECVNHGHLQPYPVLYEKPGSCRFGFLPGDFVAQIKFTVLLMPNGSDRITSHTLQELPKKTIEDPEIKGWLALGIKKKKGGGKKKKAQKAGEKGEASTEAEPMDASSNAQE", "assay": "EMSA; 100 ng EBP1-GST, 100 pg probe; competition with unlabeled CCACGTC DNA; 10 mM Tris pH 7.5, 50 mM KCl, 1 mM MgCl2, 5% glycerol, 0.5 mM DTT, 0.2 mg/mL BSA, 0.5 mg/mL polyglutamate; room temperature 20 min; 6% native PAGE", "conditions": "protein: recombinant; tags: GST; label: FITC; blunt", "data": [{"binder": "B1", "values": [{"measurement": "binding result", "value": "binds"}]}]}
